In patent publication US20240287172A1 (SCIRHOM, published 2024):
Positions count from the first letter of the chain named.

T1: hiR2-FL-S583A-T7 (human, UniProt Q6PJF5 1-856)
T1 sequence: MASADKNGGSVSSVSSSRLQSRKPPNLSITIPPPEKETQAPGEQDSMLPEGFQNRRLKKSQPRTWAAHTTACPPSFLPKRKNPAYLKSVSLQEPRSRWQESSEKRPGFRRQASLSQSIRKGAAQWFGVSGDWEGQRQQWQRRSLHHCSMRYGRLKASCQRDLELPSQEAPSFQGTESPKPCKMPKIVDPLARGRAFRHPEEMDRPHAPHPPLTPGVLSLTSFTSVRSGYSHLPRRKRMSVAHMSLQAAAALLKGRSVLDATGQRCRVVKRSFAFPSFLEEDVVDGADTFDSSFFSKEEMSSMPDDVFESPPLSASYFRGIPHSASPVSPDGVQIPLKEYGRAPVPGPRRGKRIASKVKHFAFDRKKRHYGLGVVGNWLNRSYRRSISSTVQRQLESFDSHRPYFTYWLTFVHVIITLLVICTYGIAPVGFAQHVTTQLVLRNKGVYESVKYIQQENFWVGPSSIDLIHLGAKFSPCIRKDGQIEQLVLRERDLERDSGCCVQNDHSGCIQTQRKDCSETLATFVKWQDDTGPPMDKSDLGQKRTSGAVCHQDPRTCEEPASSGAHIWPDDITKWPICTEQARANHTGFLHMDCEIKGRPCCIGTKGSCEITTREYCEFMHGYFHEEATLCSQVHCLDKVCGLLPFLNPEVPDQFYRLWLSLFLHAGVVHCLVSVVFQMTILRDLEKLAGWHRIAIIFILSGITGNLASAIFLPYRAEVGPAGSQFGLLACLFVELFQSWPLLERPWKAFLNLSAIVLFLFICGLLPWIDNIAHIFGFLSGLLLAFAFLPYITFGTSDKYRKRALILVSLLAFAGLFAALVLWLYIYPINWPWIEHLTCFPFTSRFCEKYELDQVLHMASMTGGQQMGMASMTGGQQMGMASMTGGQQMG

T2: hiR2-FL-P533A-T7 (human, UniProt Q6PJF5 1-856)
T2 sequence: T1 sequence with P533A, A583S

B1: antibody 3 (antibody, V domains shown)
VH: QVTLKESGPGILQPSQTLSLTCSFSGFSLTTFAMGIGWVRQPSGKGLEWLAHIWWDGEKYNNPVLKSRLTISKDTSKNQVFLRIANVDTPDTATYYCARISSIYYIIDNWGQGTSVTVSS
VL: DIVLTQSPATLSVTPGHSVSLSCRASQSISNNLHWYQKKSHESPRLLIKYVSQSISGIPSRFSGSGSGTDFTLSINSVETEDFGMYFCQQSYNWPLTFGAGTKLELK
notes: mouse IgG, kappa light chain; also called clone #3; purified antibody 3
B2: antibody 34 (antibody, V domains shown)
VH: QVTLKESGPGILQPSQTLSLTCSFSGFSLSTFSLGVGWIRQSSGKGLEWLAHIWWDDEKYYNPALKSRLTISKDTSKNQVFLKIANVDAADTATYYCARAYYSKSYYALDYWGQGTSVTVSS
VL: DIQMTQSPSSLSASLGERVSLTCRASQEISGYLSWLQQKPDGTIKRLIYAASTLDSGVPKRFSGSRSGSDYSLAISSLESEDFADYYCLQYANFPFTFGSGTKLEIK
notes: mouse IgG, kappa light chain; also called clone #34; purified antibody 34

What was measured:
hiR2-FL-S583A-T7 = target: T1, hiR2-FL-S583A-T7; test: FACS on MEF-DKO cells expressing the variant, 3 µg/ml antibody
In short: (§1)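 Pelleted cells are resuspended in antibody at 3 μg/ml and kept on ice 1 hour, washed, then incubated with PE goat anti-mouse IgG F(ab′)2 diluted 1:100 on ice for 1 hour protected from light, washed again and analysed by flow cytometry.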

hiR2-FL-P533A-T7 = target: T2, hiR2-FL-P533A-T7; test: as above
In short: as §1

| Binder | loss of binding vs wild type (hiR2-FL-S583A-T7) [%] | loss of binding vs wild type (hiR2-FL-P533A-T7) [%] |
| --- | --- | --- |
| B1 | ≥ 30 |  |
| B2 |  | ≥ 30 |
